Laboratory results as given in patent US20250011363A1, “OPTIMIZED SHORTENED PEPTIDE THAT BINDS TO ACETYLCHOLINE RECEPTOR, AND USE THEREOF” (SKINMED CO., LTD., priority 2021, published 2025).

biological target: acetylcholine receptor; test: SPR, peptide at 10 uM on immobilised AchR

| Binder | Binding affinity (RU) |
| --- | --- |
| KKVISK [6mer-1-1] | 122 RU |
| RKQILR [6mer-1-2] | 142 RU |
| RKRRSR [6mer-1-3] | 154 RU |
| RKSFYK [6mer-1-4] | 139 RU |
| KRQIRK [6mer-1-5] | 135 RU |
| RKSRCK [6mer-1-6] | 153 RU |
| KRQYSK [6mer-1-7] | 126 RU |
| RKRRRK [6mer-1-8] | 125 RU |
| RKSFCK [6mer-1-9] | 154 RU |
| KRWRLK [6mer-1-10] | 139 RU |
| KRQFTK [6mer-1-11] | 139 RU |
| KKQICK [6mer-1-12] | 128 RU |
| KRQIQR [6mer-1-13] | 147 RU |
| RKRFLK [6mer-1-14] | 145 RU |
| KRQICK [6mer-1-15] | 123 RU |
| KKQYCR [6mer-1-16] | 136 RU |
| KRVQCR [6mer-1-17] | 135 RU |
| KKQFTR [6mer-1-18] | 145 RU |
| KRSFYR [6mer-1-19] | 135 RU |
| KKSRYK [6mer-1-20] | 147 RU |
| RKWYLK [6mer-1-21] | 137 RU |
| RKRLCK [6mer-1-22] | 126 RU |
| KRSVSR [6mer-1-23] | 153 RU |
| RKVIRK [6mer-1-24] | 142 RU |
| KKLIRR [6mer-1-25] | 135 RU |
| KKRVLR [6mer-1-26] | 123 RU |
| KRSFTK [6mer-1-27] | 142 RU |

| Binder | Binding affinity (RU) |
| --- | --- |
| RRWISK [6mer-1-28] | 125 RU |
| KRLISR [6mer-1-29] | 124 RU |
| RRQVRR [6mer-1-30] | 154 RU |
| KRLYCR [6mer-1-31] | 121 RU |
| RKGQCR [6mer-1-32] | 121 RU |
| KKSYCR [6mer-1-33] | 154 RU |
| RKWLYK [6mer-1-34] | 135 RU |
| RRGRQR [6mer-1-35] | 136 RU |
| RKWQQK [6mer-1-36] | 124 RU |
| KKWVLR [6mer-1-37] | 121 RU |
| RRQQTK [6mer-1-38] | 126 RU |
| RKVYQK [6mer-1-39] | 139 RU |
| KRSQYK [6mer-1-40] | 121 RU |
| RKGITK [6mer-1-41] | 122 RU |
| KKRIQR [6mer-1-42] | 139 RU |
| KRQYCK [6mer-1-44] | 148 RU |
| RKGLTK [6mer-1-45] | 145 RU |
| KRLYQR [6mer-1-46] | 142 RU |
| KRRLLK [6mer-1-47] | 149 RU |
| RRWVRR [6mer-1-48] | 124 RU |
| RRWQTR [6mer-1-49] | 149 RU |
| KKVRTR [6mer-1-50] | 139 RU |
| RRVLYK [6mer-1-51] | 127 RU |
| RRRFLR [6mer-1-52] | 131 RU |
| KRVIQR [6mer-1-53] | 123 RU |
| RRRVCK [6mer-1-54] | 144 RU |

biological target: acetylcholine receptor; test: SPR, AchR immobilized on chip, peptide at 10 uM

| Binder | Binding affinity |
| --- | --- |
| KGRRRK [6mer-2-68] | 142 RU |
| RCTNKR [6mer-2-1199] | 27 RU |
| RHHNRR [6mer-2-1200] | 30 RU |
